Patent publication US20250161478A1, “LINKER PAYLOADS AND CONJUGATES THEREOF” (priority 2021, published 2025)

Molecular target: TYRP1 antigen on human melanoma cells (IGR-1, SK-MEL-30, SK-MEL-28) (human) (UniProt P17643)
Test: cell-based or functional assay

## TAAuM (anti-mGP75-maleimidoacetyl-β-Ala-Val-Ser(Glc)-PAB-MMAU), DAR 10 (antibody)
  IC50, cell viability (PrestoBlue), IGR-1 cells: 1.3 nM
